Positions count from the first letter of the chain named.
Experiments:
[1] = biological target: T1, mouse 5-HT3A receptor W347A, full length (mouse) (UniProt P23979)
T1 sequence: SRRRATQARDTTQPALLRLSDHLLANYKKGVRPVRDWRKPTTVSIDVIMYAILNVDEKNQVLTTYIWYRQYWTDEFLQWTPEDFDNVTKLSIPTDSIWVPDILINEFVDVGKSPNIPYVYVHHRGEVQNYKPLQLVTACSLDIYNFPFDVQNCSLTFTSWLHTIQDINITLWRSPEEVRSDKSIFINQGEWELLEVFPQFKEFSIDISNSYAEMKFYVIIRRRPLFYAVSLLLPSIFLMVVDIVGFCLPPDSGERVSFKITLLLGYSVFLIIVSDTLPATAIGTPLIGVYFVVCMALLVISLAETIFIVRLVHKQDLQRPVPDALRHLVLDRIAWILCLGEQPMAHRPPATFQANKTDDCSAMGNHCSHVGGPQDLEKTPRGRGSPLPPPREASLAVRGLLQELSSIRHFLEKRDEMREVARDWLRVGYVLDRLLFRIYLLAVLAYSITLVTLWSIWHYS

[2] = biological target: T2, mouse 5-HT3A receptor L353A, full length (mouse) (UniProt P23979)
T2 sequence: T1 sequence with A324W, L330A

[3] = biological target: T3, mouse 5-HT3A receptor R349A, full length (mouse) (UniProt P23979)
T3 sequence: T1 sequence with A324W, R326A

[4] = biological target: T4, mouse 5-HT3A receptor W347A, R349A, L353A, full length (mouse) (UniProt P23979)
T4 sequence: T1 sequence with R326A, L330A

[5] = biological target: T5, mouse 5-HT3A receptor, wild type, full length (mouse) (UniProt P23979)
T5 sequence: T1 sequence with A324W

[6] = biological target: T6, mouse 5-HT3A receptor W447A, R449A, L454A, full length (mouse) (UniProt P23979)
T6 sequence: T1 sequence with A324W, W424A, R426A, L431A

B1: resistance to inhibitors of choline esterase (RIC-3) protein (natural protein)
chain: SRGKRQEPPPTPEGKLGRFPPMMHHHQAPSDGQTPGARFQRSHLAEAFAKAKGSGGGAGGGGSGRGLMGQIIPIYGFGIFLYILYILFKLSKGKTTAEDGKCYTAMPGNTHRKITSFELAQLQEKLKETEAAMEKLINRVGPNGESRAQTVTSDQEKRLLHQLREITRVMKEGKFIDRFSPEKEAEEAPYMEDWEGYPEETYPIYDLSDCIKRRQETILVDYPDPKELSAEEIAERMGMIEEEESDHLGWESLPTDPRAQEDNSVTSCDPKPETCSCCFHEDEDPAVLAENAGFSADSYPEQEETTKEEWSQDFKDEGLGISTDKAYTGSMLRKRNPQGLE
remaining current (%): peak 5-HT-evoked current of 5-HT3A channels co-expressed with RIC-3 divided by that of the channels alone; TEVC in Xenopus oocytes, 10 uM serotonin [1]: 43.4%
remaining current (%): peak 5-HT-evoked current of 5-HT3A channels co-expressed with RIC-3 divided by that of the channels alone; TEVC in Xenopus oocytes, 10 uM serotonin [2]: 50%
remaining current (%): peak 5-HT-evoked current of 5-HT3A channels co-expressed with RIC-3 divided by that of the channels alone; TEVC in Xenopus oocytes, 10 uM serotonin [3]: 33.9%
remaining current (%): peak 5-HT-evoked current of 5-HT3A channels co-expressed with RIC-3 divided by that of the channels alone; TEVC in Xenopus oocytes, 10 uM serotonin [4]: 40.6%
remaining current (%): peak 5-HT-evoked current of 5-HT3A channels co-expressed with RIC-3 divided by that of the channels alone; TEVC in Xenopus oocytes, 10 uM serotonin [5]: 15.6%
remaining current (%): peak 5-HT-evoked current of 5-HT3A channels co-expressed with RIC-3 divided by that of the channels alone; TEVC in Xenopus oocytes, 10 uM serotonin [6]: 36.9%

Source: PMC10083716
